T1: recombinant human E-cadherin (R&D Systems 648-EC-100) (human, UniProt P12830 155-707)
T1 construct: Bought protein
T1 sequence (looked up): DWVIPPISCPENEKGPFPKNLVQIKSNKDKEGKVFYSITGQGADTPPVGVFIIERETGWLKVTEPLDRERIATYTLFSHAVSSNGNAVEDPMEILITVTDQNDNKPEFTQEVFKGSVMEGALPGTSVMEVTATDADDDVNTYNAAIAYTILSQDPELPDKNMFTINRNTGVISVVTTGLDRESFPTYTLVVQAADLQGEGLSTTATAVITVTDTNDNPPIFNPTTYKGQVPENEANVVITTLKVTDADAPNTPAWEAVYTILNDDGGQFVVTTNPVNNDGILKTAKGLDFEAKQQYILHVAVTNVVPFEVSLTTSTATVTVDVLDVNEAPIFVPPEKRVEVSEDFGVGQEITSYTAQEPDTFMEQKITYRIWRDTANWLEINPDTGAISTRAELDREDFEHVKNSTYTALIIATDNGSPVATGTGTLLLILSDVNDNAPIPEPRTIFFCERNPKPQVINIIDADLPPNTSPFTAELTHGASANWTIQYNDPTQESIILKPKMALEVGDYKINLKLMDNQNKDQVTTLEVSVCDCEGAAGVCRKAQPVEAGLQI


What was measured:
[1] = target: T2, human P-cadherin on the surface of cells (human, UniProt P22223 108-829); assay: epitope competition on A431 cells; competitor: biotinylated 129-1c4 IgG at 1x KD, DELFIA
T2 construct: whole, on cells; also called native P-cadherin on the surface of A431 cells; SW480 cells stably expressing P-cadherin

[2] = target: T2, human P-cadherin on the surface of cells; assay: cell-based or functional assay
[3] = target: T2, human P-cadherin on the surface of cells; assay: cell-based or functional assay; remark: listed apart in the source
[4] = target: T1, recombinant human E-cadherin (R&D …); assay: ELISA on coated antigen, relative KD
[5] = target: T3, Recombinant human P-cadherin Fc (R&D Systems 861-PC-100) (human, UniProt P22223 108-654); assay: ELISA on coated antigen, relative KD
T3 construct: also called recombinant human P-cadherin/Fc fusion protein; hCad/Fc; not shown: Fc part of the bought fusion protein

[6] = target: T3, Recombinant human P-cadherin Fc (R&D …); assay: ELISA; KD on E-cadherin over KD on P-cadherin
[7] = target: T2, human P-cadherin on the surface of cells; assay: cell-based or functional assay; remark: listed apart in the source
[8] = target: T2, human P-cadherin on the surface of cells; assay: cell-based or functional assay; remark: listed apart in the source

IC50 [1]	A431 Adhesion Assay Mean IC50 (nM) (n = 3) [2]	A431 Adhesion Assay Mean IC50 (nM) (n = 2) [3]	Binder	further results
2.49 nM	–	–	scFv variant of 129-1c4 with VH CDR3 SEQ ID NO: 37 and VL CDR3 SEQ ID NO: 40 (scFv, V domains shown, His-tagged purified scFv; also called 37 / 40) VH: not shown VL: QSALTQPASVSGSPGQSITISCTGTSNDVGAYNYVSWYQQHPGKAPKLILSEVNKRPSGVSNRFSGSKSGNTASLSISGLQAEDEADYYCSSFTSGLPWVLFGGGTKLTVL	–
–	0.229 nM	2.1 nM	194-b09 (antibody, V domains shown) VH: not shown VL: QSALTQPASVSGSPGQSITISCTGTSNDVGAYNYVSWYQQHPGKAPKLILSEVNKRPSGVSNRFSGSKSGNTASLSISGLQAEDEADYYCSSFTSGLPWVVFGGGTKLTVL	–
–	0.114 nM	0.97 nM	195-e11 (antibody, V domains shown) VH: not shown VL: QSALTQPASVSGSPGQSITISCTGTSNDVGAYNYVSWYQQHPGKAPKLILSEVNKRPSGVSNRFSGSKSGNTASLSISGLQAEDEADYYCSSFTSGIVFNLFGGGTKLTVL	–
–	0.168 nM	0.63 nM	200-h06 (antibody, V domains shown) VH: not shown VL: QSALTQPASVSGSPGQSITISCTGTSNDVGAYNYVSWYQQHPGKAPKLILSEVNKRPSGVSNRFSGSKSGNTASLSISGLQAEDEADYYCTSYRMDSTFMLFGGGTKLTVL	–
–	0.149 nM	0.39 nM	196-g03 (antibody, V domains shown) VH: not shown VL: QSALTQPASVSGSPGQSITISCTGTSNDVGAYNYVSWYQQHPGKAPKLILSEVNKRPSGVSNRFSGSKSGNTASLSISGLQAEDEADYYCTSYTMGSTFMLFGGGTKLTVL	–
–	0.08 nM	–	196-d10 (antibody, V domains shown, Tested as IgG converted from scFv; also called 196-d10 IgG) VH: not shown VL: QSALTQPASVSGSPGQSITISCTGTSNDVGAYNYVSWYQQHPGKAPKLILSEVNKRPSGVSNRFSGSKSGNTASLSISGLQAEDEADYYCTSYTMGSTFMLFGGGTKLTVL	Kd [4]: 0.063 nM; Kd [5]: 0.045 nM; KD(E)/KD(P) [6]: 1.4; SW480 Spheroid Disruption Assay, Fold Increased Disruption vs Control at 5 nM [7]: 10 fold; SW480 Aggregation Assay Mean IC50 [8]: 1.5 nM
–	0.158 nM	0.73 nM	194-g09 (antibody, V domains shown) VH: not shown VL: QSALTQPASVSGSPGQSITISCTGTSNDVGAYNYVSWYQRHPGKAPKLILSEVNKRPSGVSNRFSGSKSGNTASLSISGLQAEDEAEYYCSSYTMGSTFMLFGGGTKLTVL	–
1.47 nM	–	–	scFv variant of 129-1c4 with VH CDR3 SEQ ID NO: 37 and VL CDR3 SEQ ID NO: 303 (scFv, V domains shown, His-tagged purified scFv; also called 37 / 303) VH: not shown VL: QSALTQPASVSGSPGQSITISCTGTSNDVGAYNYVSWYQQHPGKAPKLILSEVNKRPSGVSNRFSGSKSGNTASLSISGLQAEDEADYYCSSFTSGRAFNLFGGGTKLTVL	–
8.73 nM	–	–	scFv variant of 129-1c4 with VH CDR3 SEQ ID NO: 37 and VL CDR3 SEQ ID NO: 274 (scFv, V domains shown, His-tagged purified scFv; also called 37 / 274) VH: not shown VL: QSALTQPASVSGSPGQSITISCTGTSNDVGAYNYVSWYQQHPGKAPKLILSEVNKRPSGVSNRFSGSKSGNTASLSISGLQAEDEADYYCGAYSAGSTFMLFGGGTKLTVL	–
6.67 nM	–	–	scFv variant of 129-1c4 with VH CDR3 SEQ ID NO: 37 and VL CDR3 SEQ ID NO: 288 (scFv, V domains shown, His-tagged purified scFv; also called 37 / 288) VH: not shown VL: QSALTQPASVSGSPGQSITISCTGTSNDVGAYNYVSWYQQHPGKAPKLILSEVNKRPSGVSNRFSGSKSGNTASLSISGLQAEDEADYYCSSFTSAIPWSLFGGGTKLTVL	–
1.1 nM	–	–	scFv variant of 129-1c4 with VH CDR3 SEQ ID NO: 37 and VL CDR3 SEQ ID NO: 304 (scFv, V domains shown, His-tagged purified scFv; also called 37 / 304) VH: not shown VL: QSALTQPASVSGSPGQSITISCTGTSNDVGAYNYVSWYQQHPGKAPKLILSEVNKRPSGVSNRFSGSKSGNTASLSISGLQAEDEADYYCSSFTSGPVFNLFGGGTKLTVL	–
10.5 nM	–	–	scFv variant of 129-1c4 with VH CDR3 SEQ ID NO: 37 and VL CDR3 SEQ ID NO: 287 (scFv, V domains shown, His-tagged purified scFv; also called 37 / 287) VH: not shown VL: QSALTQPASVSGSPGQSITISCTGTSNDVGAYNYVSWYQQHPGKAPKLILSEVNKRPSGVSNRFSGSKSGNTASLSISGLQAEDEADYYCSSFTSGIKFTLFGGGTKLTVL	–
